# Experimental data taken from the supplement of paper PMC5998384.
# Experiments:
# HeLa Kyoto [1] = experiment: melting temperature (median over replicates), in situ; higher = more thermally stable
# HeLa Kyoto [2] = experiment: thermal stability score vs G1/S (z-score of summed log2 fold changes over temperatures); higher = more thermally stable than in G1/S
# HeLa Kyoto [3] = experiment: solubility change mitosis vs G1/S (difference of NP-40 vs SDS log2 ratios) (log2 ratio difference); higher = more soluble in mitosis
# HeLa Kyoto [4] = experiment: solubility in G1/S (NP-40 vs SDS abundance) (log2 ratio); higher = more soluble; details: cell cycle stage: G1/S
# [5] = cell cycle stage: early G1 (4.5 h after nocodazole release)
# 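Throughout, for melting temperature (median over replicates), in situ: HeLa Kyoto cells synchronized by double thymidine or nocodazole block, proteins quantified by TMT10plex mass spectrometry, three independent biological replicates.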
# 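Throughout, for solubility change mitosis vs G1/S (difference of NP-40 vs SDS log2 ratios): synchronized HeLa Kyoto cells (double thymidine block for G1/S, nocodazole release for mitosis), protein amounts in NP-40 versus SDS lysates quantified by mass spectrometry, three biological replicates.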
# 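Throughout, for solubility in G1/S (NP-40 vs SDS abundance): HeLa Kyoto cells arrested at G1/S by double thymidine block, proteins quantified by TMT10plex mass spectrometry in mild NP-40 versus SDS extracts, three biological replicates.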
# 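Throughout, for thermal stability score vs G1/S (z-score of summed log2 fold changes over temperatures): synchronized HeLa Kyoto cells, proteins quantified by TMT10plex mass spectrometry, three biological replicates, mitosis taken 0.5 h after nocodazole release, G1/S directly after double thymidine block.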
# Sequence of LRP1 (chain, as listed by the source): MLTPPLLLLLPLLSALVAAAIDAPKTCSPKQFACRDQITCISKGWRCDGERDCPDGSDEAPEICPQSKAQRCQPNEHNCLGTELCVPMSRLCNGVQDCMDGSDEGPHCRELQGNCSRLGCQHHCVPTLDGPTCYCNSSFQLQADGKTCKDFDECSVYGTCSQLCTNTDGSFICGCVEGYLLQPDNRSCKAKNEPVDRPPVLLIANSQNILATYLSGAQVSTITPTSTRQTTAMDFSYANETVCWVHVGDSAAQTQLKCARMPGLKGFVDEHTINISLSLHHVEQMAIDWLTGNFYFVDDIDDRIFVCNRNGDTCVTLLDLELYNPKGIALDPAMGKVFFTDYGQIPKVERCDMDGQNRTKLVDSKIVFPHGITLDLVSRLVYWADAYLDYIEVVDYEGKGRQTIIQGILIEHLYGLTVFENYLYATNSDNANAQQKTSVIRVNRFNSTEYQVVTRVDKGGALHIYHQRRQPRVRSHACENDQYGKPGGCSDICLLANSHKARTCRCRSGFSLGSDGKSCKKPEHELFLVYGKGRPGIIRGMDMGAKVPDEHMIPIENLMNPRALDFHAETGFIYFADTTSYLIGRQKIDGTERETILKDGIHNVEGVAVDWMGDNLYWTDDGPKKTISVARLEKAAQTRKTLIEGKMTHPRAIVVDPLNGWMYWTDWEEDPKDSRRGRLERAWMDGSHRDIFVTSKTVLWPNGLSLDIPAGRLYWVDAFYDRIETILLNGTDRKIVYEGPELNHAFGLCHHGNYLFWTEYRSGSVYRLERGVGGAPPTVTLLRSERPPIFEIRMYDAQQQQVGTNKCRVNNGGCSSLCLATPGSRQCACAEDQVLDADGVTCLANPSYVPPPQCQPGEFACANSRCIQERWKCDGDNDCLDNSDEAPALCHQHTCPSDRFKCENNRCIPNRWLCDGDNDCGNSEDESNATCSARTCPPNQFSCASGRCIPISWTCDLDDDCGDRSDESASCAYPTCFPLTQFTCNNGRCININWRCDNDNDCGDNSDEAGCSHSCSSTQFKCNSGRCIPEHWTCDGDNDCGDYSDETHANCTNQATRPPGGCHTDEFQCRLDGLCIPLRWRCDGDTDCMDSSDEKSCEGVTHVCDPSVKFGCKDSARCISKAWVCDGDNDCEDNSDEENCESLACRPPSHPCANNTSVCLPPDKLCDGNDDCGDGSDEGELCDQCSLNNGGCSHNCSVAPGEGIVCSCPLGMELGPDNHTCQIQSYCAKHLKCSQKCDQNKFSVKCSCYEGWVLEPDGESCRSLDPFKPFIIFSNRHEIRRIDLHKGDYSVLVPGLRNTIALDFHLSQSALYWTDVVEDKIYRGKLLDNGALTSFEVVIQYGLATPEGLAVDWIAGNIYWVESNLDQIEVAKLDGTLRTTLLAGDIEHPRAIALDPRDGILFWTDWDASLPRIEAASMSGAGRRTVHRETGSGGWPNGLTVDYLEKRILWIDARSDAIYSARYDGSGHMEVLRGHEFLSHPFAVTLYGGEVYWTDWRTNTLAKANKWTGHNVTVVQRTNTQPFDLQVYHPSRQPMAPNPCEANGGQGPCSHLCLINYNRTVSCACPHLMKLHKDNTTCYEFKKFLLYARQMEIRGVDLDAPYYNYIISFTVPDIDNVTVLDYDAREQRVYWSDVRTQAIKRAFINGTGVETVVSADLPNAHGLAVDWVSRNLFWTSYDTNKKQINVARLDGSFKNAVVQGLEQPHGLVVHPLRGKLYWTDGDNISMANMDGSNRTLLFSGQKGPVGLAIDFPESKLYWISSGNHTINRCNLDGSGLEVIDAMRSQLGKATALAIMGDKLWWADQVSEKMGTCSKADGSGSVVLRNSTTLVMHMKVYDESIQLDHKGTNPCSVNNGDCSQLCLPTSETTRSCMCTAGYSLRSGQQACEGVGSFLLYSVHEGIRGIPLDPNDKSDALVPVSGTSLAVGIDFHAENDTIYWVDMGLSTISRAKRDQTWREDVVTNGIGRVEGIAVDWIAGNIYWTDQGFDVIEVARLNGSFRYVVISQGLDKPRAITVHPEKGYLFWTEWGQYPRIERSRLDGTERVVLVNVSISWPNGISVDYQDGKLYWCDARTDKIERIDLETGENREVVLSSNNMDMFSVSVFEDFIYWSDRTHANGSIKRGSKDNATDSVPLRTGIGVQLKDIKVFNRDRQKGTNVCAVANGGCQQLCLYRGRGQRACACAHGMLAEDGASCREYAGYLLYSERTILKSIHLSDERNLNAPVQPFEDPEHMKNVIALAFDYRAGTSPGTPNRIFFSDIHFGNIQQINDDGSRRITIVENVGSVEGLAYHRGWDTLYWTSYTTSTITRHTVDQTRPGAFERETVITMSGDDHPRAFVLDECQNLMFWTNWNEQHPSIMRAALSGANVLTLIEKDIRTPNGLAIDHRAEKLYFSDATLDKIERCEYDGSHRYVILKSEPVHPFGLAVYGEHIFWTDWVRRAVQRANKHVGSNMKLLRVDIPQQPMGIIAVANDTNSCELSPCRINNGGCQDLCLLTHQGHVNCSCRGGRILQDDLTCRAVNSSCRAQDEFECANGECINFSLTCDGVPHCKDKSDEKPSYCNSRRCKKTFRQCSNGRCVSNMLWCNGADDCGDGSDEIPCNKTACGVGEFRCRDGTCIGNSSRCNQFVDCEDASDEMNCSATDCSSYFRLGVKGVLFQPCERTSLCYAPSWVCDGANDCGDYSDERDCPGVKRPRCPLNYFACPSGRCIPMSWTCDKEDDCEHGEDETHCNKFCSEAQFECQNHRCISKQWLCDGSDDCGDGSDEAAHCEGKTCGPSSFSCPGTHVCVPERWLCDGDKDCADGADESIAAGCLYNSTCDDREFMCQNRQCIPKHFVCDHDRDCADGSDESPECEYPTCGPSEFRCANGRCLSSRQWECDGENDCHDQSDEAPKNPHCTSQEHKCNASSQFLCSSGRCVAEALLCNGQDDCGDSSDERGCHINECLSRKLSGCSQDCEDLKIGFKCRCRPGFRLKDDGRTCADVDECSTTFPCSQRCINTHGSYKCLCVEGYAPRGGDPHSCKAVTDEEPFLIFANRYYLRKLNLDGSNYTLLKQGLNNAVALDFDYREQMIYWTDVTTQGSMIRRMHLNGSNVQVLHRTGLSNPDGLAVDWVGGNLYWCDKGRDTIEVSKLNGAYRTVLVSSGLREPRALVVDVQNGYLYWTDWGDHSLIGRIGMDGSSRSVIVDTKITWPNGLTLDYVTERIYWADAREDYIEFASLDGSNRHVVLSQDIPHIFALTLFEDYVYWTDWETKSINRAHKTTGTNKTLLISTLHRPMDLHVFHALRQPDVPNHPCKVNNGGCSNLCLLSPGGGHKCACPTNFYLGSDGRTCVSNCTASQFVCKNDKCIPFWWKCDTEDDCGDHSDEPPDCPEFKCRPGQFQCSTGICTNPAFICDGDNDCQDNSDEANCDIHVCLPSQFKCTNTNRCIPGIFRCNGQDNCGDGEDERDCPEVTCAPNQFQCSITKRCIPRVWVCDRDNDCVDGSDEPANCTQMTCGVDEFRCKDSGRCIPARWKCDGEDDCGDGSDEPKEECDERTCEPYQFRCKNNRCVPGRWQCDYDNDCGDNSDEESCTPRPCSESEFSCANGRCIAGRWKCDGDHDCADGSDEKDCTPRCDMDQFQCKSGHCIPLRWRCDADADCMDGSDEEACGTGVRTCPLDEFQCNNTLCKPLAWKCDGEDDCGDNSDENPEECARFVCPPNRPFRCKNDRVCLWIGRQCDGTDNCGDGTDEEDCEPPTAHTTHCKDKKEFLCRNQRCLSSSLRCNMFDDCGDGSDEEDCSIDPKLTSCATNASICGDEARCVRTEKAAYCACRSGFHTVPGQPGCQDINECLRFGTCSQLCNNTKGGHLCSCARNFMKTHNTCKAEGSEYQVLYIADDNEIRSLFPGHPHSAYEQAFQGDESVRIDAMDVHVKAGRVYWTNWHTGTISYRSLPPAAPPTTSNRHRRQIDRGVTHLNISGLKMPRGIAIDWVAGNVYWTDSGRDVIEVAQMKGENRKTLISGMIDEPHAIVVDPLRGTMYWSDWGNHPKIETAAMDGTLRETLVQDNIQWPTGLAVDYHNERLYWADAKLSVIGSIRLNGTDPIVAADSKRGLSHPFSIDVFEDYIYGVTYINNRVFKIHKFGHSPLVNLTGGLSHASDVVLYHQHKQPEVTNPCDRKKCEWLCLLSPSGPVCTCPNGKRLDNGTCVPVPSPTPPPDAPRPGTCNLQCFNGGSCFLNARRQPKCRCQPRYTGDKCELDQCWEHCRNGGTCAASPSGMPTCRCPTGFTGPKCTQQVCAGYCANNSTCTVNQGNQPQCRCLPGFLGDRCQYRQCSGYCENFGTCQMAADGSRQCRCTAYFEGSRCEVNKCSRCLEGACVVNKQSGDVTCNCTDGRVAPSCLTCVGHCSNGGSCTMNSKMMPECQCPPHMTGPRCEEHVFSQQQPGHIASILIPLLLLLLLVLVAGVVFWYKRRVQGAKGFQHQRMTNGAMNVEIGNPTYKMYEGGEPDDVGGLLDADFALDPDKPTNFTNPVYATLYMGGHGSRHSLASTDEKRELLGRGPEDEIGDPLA
Substance,melting temperature (HeLa Kyoto [1]; cell cycle stage: G1/S) [°C],melting temperature (HeLa Kyoto [1]; cell cycle stage: mitosis) [°C],thermal stability score (HeLa Kyoto [2]; [5]),thermal stability score (HeLa Kyoto [2]; cell cycle stage: mitosis),solubility change mitosis (log2) (HeLa Kyoto [3]),solubility in G1/S (log2) (HeLa Kyoto [4])
MADLDSPPKLSGVQQPSEGVGGGRCSEISAELIRSLTELQELEAVYERLCGEEKVVERELDALLEQQNTIESKMVTLHRMGPNLQLIEGDAKQLAGMITFTCNLAENVSSKVRQLDLAKNRLYQAIQRADDILDLKFCMDGVQTALRSEDYEQAAAHTHRYLCLDKSVIELSRQGKEGSMIDANLKLLQEAEQRLKAIVAEKFAIATKEGDLPQVERFFKIFPLLGLHEEGLRKFSEYLCKQVASKAEENLLMVLGTDMSDRRAAVIFADTLTLLFEGIARIVETHQPIVETYYGPGRLYTLIKYLQVECDRQVEKVVDKFIKQRDYHQQFRHVQNNLMRNSTTEKIEPRELDPILTEVTLMNARSELYLRFLKKRISSDFEVGDSMASEEVKQEHQKCLDKLLNNCLLSCTMQELIGLYVTMEEYFMRETVNKAVALDTYEKGQLTSSMVDDVFYIVKKCIGRALSSSSIDCLCAMINLATTELESDFRDVLCNKLRMGFPATTFQDIQRGVTSAVNIMHSSLQQGKFDTKGIESTDEAKMSFLVTLNNVEVCSENISTLKKTLESDCTKLFSQGIGGEQAQAKFDSCLSDLAAVSNKFRDLLQEGLTELNSTAIKPQVQPWINSFFSVSHNIEEEEFNDYEANDPWVQQFILNLEQQMAEFKASLSPVIYDSLTGLMTSLVAVELEKVVLKSTFNRLGGLQFDKELRSLIAYLTTVTTWTIRDKFARLSQMATILNLERVTEILDYWGPNSGPLTWRLTPAEVRQVLALRIDFRSEDIKRLRL [COG4],48.7,49.6,0.91,1.79,-0.175,-0.0589
MAIRKKSTKSPPVLSHEFVLQNHADIVSCVAMVFLLGLMFEITAKASIIFVTLQYNVTLPATEEQATESVSLYYYGIKDLATVFFYMLVAIIIHAVIQEYMLDKINRRMHFSKTKHSKFNESGQLSAFYLFACVWGTFILISENYISDPTILWRAYPHNLMTFQMKFFYISQLAYWLHAFPELYFQKTKKEDIPRQLVYIGLYLFHIAGAYLLNLNHLGLVLLVLHYFVEFLFHISRLFYFSNEKYQKGFSLWAVLFVLGRLLTLILSVLTVGFGLARAENQKLDFSTGNFNVLAVRIAVLASICVTQAFMMWKFINFQLRRWREHSAFQAPAVKKKPTVTKGRSSKKGTENGVNGTLTSNVADSPRNKKEKSS [TRAM1],52.2,52.6,-0.164,-0.999,-0.0373,-0.0229
MGTRLPLVLRQLRRPPQPPGPPRRLRVPCRASSGGGGGGGGGREGLLGQRRPQDGQARSSCSPGGRTPAARDSIVREVIQNSKEVLSLLQEKNPAFKPVLAIIQAGDDNLMQEINQNLAEEAGLNITHICLPPDSSEAEIIDEILKINEDTRVHGLALQISENLFSNKVLNALKPEKDVDGVTDINLGKLVRGDAHECFVSPVAKAVIELLEKSGVNLDGKKILVVGAHGSLEAALQCLFQRKGSMTMSIQWKTRQLQSKLHEADIVVLGSPKPEEIPLTWIQPGTTVLNCSHDFLSGKVGCGSPRIHFGGLIEEDDVILLAAALRIQNMVSSGRRWLREQQHRRWRLHCLKLQPLSPVPSDIEISRGQTPKAVDVLAKEIGLLADEIEIYGKSKAKVRLSVLERLKDQADGKYVLVAGITPTPLGEGKSTVTIGLVQALTAHLNVNSFACLRQPSQGPTFGVKGGAAGGGYAQVIPMEEFNLHLTGDIHAITAANNLLAAAIDTRILHENTQTDKALYNRLVPLVNGVREFSEIQLARLKKLGINKTDPSTLTEEEVSKFARLDIDPSTITWQRVLDTNDRFLRKITIGQGNTEKGHYRQAQFDIAVASEIMAVLALTDSLADMKARLGRMVVASDKSGQPVTADDLGVTGALTVLMKDAIKPNLMQTLEGTPVFVHAGPFANIAHGNSSVLADKIALKLVGEEGFVVTEAGFGADIGMEKFFNIKCRASGLVPNVVVLVATVRALKMHGGGPSVTAGVPLKKEYTEENIQLVADGCCNLQKQIQITQLFGVPVVVALNVFKTDTRAEIDLVCELAKRAGAFDAVPCYHWSVGGKGSVDLARAVREAASKRSRFQFLYDVQVPIVDKIRTIAQAVYGAKDIELSPEAQAKIDRYTQQGFGNLPICMAKTHLSLSHQPDKKGVPRDFILPISDVRASIGAGFIYPLVGTMSTMPGLPTRPCFYDIDLDTETEQVKGLF [MTHFD1L],51.7,51.5,-0.3,0.0484,-0.101,0.247
MLPLSIKDDEYKPPKFNLFGKISGWFRSILSDKTSRNLFFFLCLNLSFAFVELLYGIWSNCLGLISDSFHMFFDSTAILAGLAASVISKWRDNDAFSYGYVRAEVLAGFVNGLFLIFTAFFIFSEGVERALAPPDVHHERLLLVSILGFVVNLIGIFVFKHGGHGHSHGSGHGHSHSLFNGALDQAHGHVDHCHSHEVKHGAAHSHDHAHGHGHFHSHDGPSLKETTGPSRQILQGVFLHILADTLGSIGVIASAIMMQNFGLMIADPICSILIAILIVVSVIPLLRESVGILMQRTPPLLENSLPQCYQRVQQLQGVYSLQEQHFWTLCSDVYVGTLKLIVAPDADARWILSQTHNIFTQAGVRQLYVQIDFAAM [SLC30A7],57.8,55.4,0.255,-1.45,-0.278,0.101
MSSRKLSGPKGRRLSIHVVTWNVASAAPPLDLSDLLQLNNRNLNLDIYVIGLQELNSGIISLLSDAAFNDSWSSFLMDVLSPLSFIKVSHVRMQGILLLVFAKYQHLPYIQILSTKSTPTGLFGYWGNKGGVNICLKLYGYYVSIINCHLPPHISNNYQRLEHFDRILEMQNCEGRDIPNILDHDLIIWFGDMNFRIEDFGLHFVRESIKNRCYGGLWEKDQLSIAKKHDPLLREFQEGRLLFPPTYKFDRNSNDYDTSEKKRKPAWTDRILWRLKRQPCAGPDTPIPPASHFSLSLRGYSSHMTYGISDHKPVSGTFDLELKPLVSAPLIVLMPEDLWTVENDMMVSYSSTSDFPSSPWDWIGLYKVGLRDVNDYVSYAWVGDSKVSCSDNLNQVYIDISNIPTTEDEFLLCYYSNSLRSVVGISRPFQIPPGSLREDPLGEAQPQI [INPP5K],,51.8,-0.0552,0.149,-0.0846,-0.384
MSSNECFKCGRSGHWARECPTGGGRGRGMRSRGRGGFTSDRGFQFVSSSLPDICYRCGESGHLAKDCDLQEDACYNCGRGGHIAKDCKEPKREREQCCYNCGKPGHLARDCDHADEQKCYSCGEFGHIQKDCTKVKCYRCGETGHVAINCSKTSEVNCYRCGESGHLARECTIEATA [CNBP],57.6,58.8,-1.16,-2.48,-0.0883,-0.223
MEAVKTFNSELYSLNDYKPPISKAKMTQITKAAIKAIKFYKHVVQSVEKFIQKCKPEYKVPGLYVIDSIVRQSRHQFGQEKDVFAPRFSNNIISTFQNLYRCPGDDKSKIVRVLNLWQKNNVFKSEIIQPLLDMAAGIPPPVVTPVLASTTTAMSNTPGTPVTPVTPANVVQGLPDPWVSQITNTDTLAAVAQILQSPQGQQLQQLIQTLQIQQQKPQPSILQALDAGLVVQLQALTAQLTAAAAAANTLTPLEQGVSFNKKLMDRFDFGEDSEHSEEPKKEIPASQLSHVSESVNNSIFHQIAEQLQQQNLEHLRQQLLEQQQPQKATPQDSQEGTFGSEHSASPSQGSSQQHFLEPEVNLDDSIDIQQQDMDIDEGQDGVEEEVFEQEAKKVAVRSRSRTHSRSRSRSPRKRRSRSRSGSRKRKHRKRSRSRSRERKRKSSRSYSSERRAREREKERQKKGLPPIRSKTLSVCSTTLWVGQVDKKATQQDLTNLFEEFGQIESINMIPPRGCAYVCMVHRQDAFRALQKLSSGSYKIGSKVIKIAWALNKGVKTEYKQFWDVDLGVTYIPWEKVKVDDLEGFAEGGMIDQETVNTEWETVKSSEPVKETVQTTQSPTPVEKETVVTTQAEVFPPPVAMLQIPVAPAVPTVSLVPPAFPVSMPVPPPGFSPIPPPPFLRASFNPSQPPPGFMPPPVPPPVVPPPTIPPVVPTSLVQPSLSMTPETVKDVGFGSLVIPGGSVASNLATSALPAGNVFNAPTKQAEPEEKVPHLIDHQISSGENTRSVIPNDISSNAAILGGQPPNVTSNSGILGVQRPNVSSNSEILGVRPSNVSSSSGIIAAQPPNILNNSGILGIQPPSVSNSSGLLGVLPPNIPNNSGLVGVQPPNVPNTPGLLGTQPPAGPQNLPPLSIPNQRMPTMPMLDIRPGLIPQAPGPRFPLIQPGIPPQRGIPPPSVLDSALHPPPRGPFPPGDIFSQPERPFLAPGRQSVDNVTNPEKRIPLGNDNIQQEGDRDYRFPPIETRESISRPPPVDVRDVVGRPIDPREGPGRPPLDGRDHFGRPPVDIRENLVRPGIDHLGRRDHFGFNPEKPWGHRGDFDEREHRVLPVYGGPKGLHEERGRFRSGNYRFDPRSGPWNRGFGQEVHRDFDDRRRPWERQRDRDDRDFDFCREMNGNRLGRDRIQNTWVPPPHARVFDYFEGATSQRKGDNVPQVNGENTERHAQPPPIPVQNDPELYEKLTSSNEINKEKSDTVADIESEPVVESTETEGT [SCAF8],48.6,49.3,0.536,0.448,-0.0284,-0.11
LRP1,55.5,55.1,-1.09,-1.22,-0.0628,-0.0261
MVVFVGRRLPALLGLFKKKGSAKAENDKHLSVGPGQGPGSAVDEHQDNVFFPSGRPPHLEELHTQAQEGLRSLQHQEKQKLNKGGWDHGDTQSIQSSRTGPDEDNISFCSQTTSYVAESSTAEDALSIRSEMIQRKGSTFRPHDSFPKSGKSGRRRRERRSTVLGLPQHVQKELGLRNEREAPGTPRAPGARDAVRIPTVDGRPRGTSGMGARVSLQALEAEAEAGAETEAMLQRHIDRVYRDDTFVGRSTGTRAPPLTRPMSLAVPGLTGGAGPAEPLSPAMSISPQATYLSKLIPHAVLPPTVDVVALGRCSLRTLSRCSLHSASPASVRSLGRFSSVSSPQPRSRHPSSSSDTWSHSQSSDTIVSDGSTLSSKGGSEGQPESSTASNSVVPPPQGGSGRGSPSGGSTAEASDTLSIRSSGQLSGRSVSLRKLKRPPPPPRRTHSLHQRGLAVPDGPLGLPPKPERKQQPQLPRPPTTGGSEGAGAAPCPPNPANSWVPGLSPGGSRRPPRSPERTLSPSSGYSSQSGTPTLPPKGLAGPPASPGKAQPPKPERVTSLRSPGASVSSSLTSLCSSSSDPAPSDRSGPQILTPLGDRFVIPPHPKVPAPFSPPPSKPRSPNPAAPALAAPAVVPGPVSTTDASPQSPPTPQTTLTPLQESPVISKDQSPPPSPPPSYHPPPPPTKKPEVVVEAPSASETAEEPLQDPNWPPPPPPAPEEQDLSMADFPPPEEAFFSVASPEPAGPSGSPELVSSPAASSSSATALQIQPPGSPDPPPAPPAPAPASSAPGHVAKLPQKEPVGCSKGGGPPREDVGAPLVTPSLLQMVRLRSVGAPGGAPTPALGPSAPQKPLRRALSGRASPVPAPSSGLHAAVRLKACSLAASEGLSSAQPNGPPEAEPRPPQSPASTASFIFSKGSRKLQLERPVSPETQADLQRNLVAELRSISEQRPPQAPKKSPKAPPPVARKPSVGVPPPASPSYPRAEPLTAPPTNGLPHTQDRTKRELAENGGVLQLVGPEEKMGLPGSDSQKELA [KIAA1522],52,52.4,0.117,0.588,-0.199,0.188
